T1: recombinant human CD70 (AviTag, polyhistidine tag and chicken tenascin trimerization domain fused to the … (chicken; human, UniProt P10039 110-139, limits assumed)
T1 construct: domain: trimerization domain; Expressed in Expi293, purified by IMAC and SEC; Copies 3 is inferred from the trimerization domain; not shown: AviTag; polyhistidine tag
T1 sequence: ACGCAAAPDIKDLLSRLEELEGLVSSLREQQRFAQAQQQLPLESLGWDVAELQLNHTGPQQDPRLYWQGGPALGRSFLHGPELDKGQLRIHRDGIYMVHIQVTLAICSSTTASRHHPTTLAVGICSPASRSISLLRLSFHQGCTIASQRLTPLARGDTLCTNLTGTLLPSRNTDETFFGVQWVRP

B1: 8C8 anti-CD70 scFv-Fc fusion (Fc fusion)
chain: EVQLVESGGGLVKPGGSLRLSCVASGFTFSSYSMNWVRQFPGKGLEWVSSISTSSNYIHYADSLQGRFTISRDNAKNSLYLQMSSLRVEDTAVYYCVRDKGTTLTNWYFDLWGRGTLVTVSSGGGGSGGGGSGGGGSGGGGSDMQMTQSPSSLSASVGDRVTLTCRASQGISNYLAWFQLKPGKVPKLLIYAASTLQSGVPSRFSGSGSGTDFALTISSLQPEDVATYYCQKYNSAPLTFGGGTKVEIK
notes: scFv-Fc expressed in Expi293; not shown: part of the hinge and Fc from a modified human IgG2
B2: P12F02 anti-CD70 scFv-Fc fusion (Fc fusion)
chain: EVQLLESGGGLVQPGGSLRLSCAASGFTFSSYAMSWVRQAPGKGLEWVSTISGTGGTTYYADSVKGRFTISRDNSKNTLYLQMNSLRAEDTAVYYCAKVRAGIDPTASDVWGQGTLVTVSSGGGGSGGGGSGGGGSGGGGSELQSVLTQPPSASGTPGQRVTISCSGSTSNIGRNYVYWYQQLPGTAPKLLIYRTNQRPSGVPDRFSGSKSGTSASLAISGLRSEDEADYYCAAWDDSLSGRVFGTGTKLTVL
notes: as for B1
B3: 9E10 anti-CD70 scFv-Fc fusion (Fc fusion)
chain: QVQLVQSGAEVTKPGASVKVSCKASGYTFTSHYIYWVRQAPGQGLEWMGWINPNSGGTNYAQKFQDRVTMARDTSISTAYMELSRLRSDDTAVYYCAKDRKREYYYNFGMDVWGQGTTVTVSAGGGGSGGGGSGGGGSGGGGSDIQMTQSPSSLSASVGDRVILTCQASQDISNYLHWYQQKPGKAPKLLIYDASDLETGVPSRFSGSGSGADFTFTISNLQPEDFATYYCQQYDHLPITFGQGTRLEIK
notes: as for B1
B4: 12D7 anti-CD70 scFv-Fc fusion (Fc fusion)
chain: QVQLVESGGGVVQPGRSLRLSCVASGFTFSDYGIHWVRQAPGMGQEWVAVIWYDGSIKKYSDSVKGRFIISRDNSENTVYLQMNSLRGEDTAIYYCARDEVGTFGAFDFWGQGTKVTVSSGGGGSGGGGSGGGGSGGGGSDIQLTQSPSFLSASVGDRVSITCRASQDISSFLAWYQQKPGKAPVLLIYVASTLQSGVPSRFSGSGSGTEFTLTVSSLQPEDFATYYCQQLHVYPITFGQGTRLEIR
notes: as for B1
B5: 12D6 anti-CD70 scFv-Fc fusion (Fc fusion)
chain: QVQLQESGPGLVKPSQTLSLTCTVSGGSISSDAYYWSWIRQHPGKGLEWIGYMYYSGITYYNPSLKSRVTISVDTSKNQFSLKLSSVTAADTAVYYCARDFGWYFDLWGRGTLVTVSSGGGGSGGGGSGGGGSGGGGSDIQMTQSPSSLSASVGDRVTITCRASQDISNYLAWYQQKPGKVPKLLIYAASTLHSGVPSRFSGSGSGTDFTLTISSLQPDDFAAYYCQKYNSAPRTFGQGTKVEIK
notes: as for B1
B6: P08F08 anti-CD70 scFv-Fc fusion (Fc fusion)
chain: EVQLVQSGAEVKKPGESLKISCKGSGYGFTSYWIGWVRQMPGKGLEWMGIIHPDDSDTKYSPSFQGQVTISADKSISTAYLQWSSLKASDTAMYYCASSYLRGLWGGYFDYWGQGTLVTVSSGGGGSGGGGSGGGGSGGGGSELQSVLTQPPSASGTPGQRVTISCSGSSSNIGSNYVNWYQQLPGTAPKLLIYGDYQRPSGVPDRFSGSKSGTSASLAISGLRSEDEADYYCATRDDSLSGSVVFGTGTKLTVL
notes: as for B1
B7: P08G02 anti-CD70 scFv-Fc fusion (Fc fusion)
chain: EVQLVQSGAEVKKPGESLKISCKGSGYTFPSSWIGWVRQMPGKGLEWMGIIYPDTSHTRYSPSFQGQVTISADKSISTAYLQWSSLKASDTAMYYCARASYFDRGTGYSSWWMDVWGQGTLVTVSSGGGGSGGGGSGGGGSGGGGSELDIQMTQSPSSLSASVGDRVTITCRASQSIYDYLHWYQQKPGKAPKLLIYDASNLQSGVPSRFSGSGSGTDFTLTISSLQPEDFATYYCQQSYTTPLFTFGQGTKVEIK
notes: as for B1
B8: P08E02 anti-CD70 scFv-Fc fusion (Fc fusion)
chain: EVQLVQSGAEVKKPGESLKISCKGSGYSFTSSWIGWVRQMPGKGLEWMGIIYPGDSDTRYSPSFQGQVTISADKSISTAYLQWSSLKASDTAMYYCAKGLSQAMTGFGFDYWGQGTLVTVSSGGGGSGGGGSGGGGSGGGGSELDIQMTQSPSSLSASVGDRVTITCRASQSISRYLNWYQQKPGKAPKLLIYAASILQTGVPSRFSGSGSGTDFTLTISSLQPEDFATYYCQQSYSTTMWTFGQGTKVEIK
notes: as for B1
B9: 4F11 anti-CD70 scFv-Fc fusion (Fc fusion)
chain: QVTLKESGPVLVKPTETLTLTCTVSGFSLSNARMGVTWIRQPPGKALEWLAHIFSNDEKSYSTSLKSRLTISKDTSKTQVVLTMTNMDPVDTATYYCARIRDYYDISSYYDYWGQGTLVSVSSGGGGSGGGGSGGGGSGGGGSDIQMTQSPSAMSASVGDRVTITCRASQDISNYLAWFQQKPGKVPKRLIYAASSLQSGVPSRFSGSGSGTEFTLTISSLLPEDFATYYCLQLNSFPFTFGGGTKVEIN
notes: as for B1
B10: P13F04 anti-CD70 scFv-Fc fusion (Fc fusion)
chain: QVQLVQSGAEVKKPGSSVKVSCKASGGTFSSYAISWVRQAPGQGLEWMGEIIPIFGTASYAQKFQGRVTITADESTSTAYMELSSLRSEDTAVYYCARAGWDDSWFDYWGQGTLVTVSSGGGGSGGGGSGGGGSGGGGSELQSVLTQPPSASGTPGQRVTISCSGSNSNIGTNYVSWYQQLPGTAPKLLIYRSSRRPSGVPDRFSGSKSGTSASLAISGLRSEDEADYYCAAWDGSLSGHWVFGTGTKLTVL
notes: as for B1
B11: P12B09 anti-CD70 scFv-Fc fusion (Fc fusion)
chain: EVQLLESGGGLVQPGGSLRLSCAASGFTFSQYSMSWVRQAPGKGLEWVSAISGGGVSTYYADSVKGRFTISRDNSKNTLYLQMNSLRAEDTAVYYCASDISDSGGSHWYFDYWGQGTLVTVSSGGGGSGGGGSGGGGSGGGGSELDIQMTQSPSSLSASVGDRVTITCRASQYIGRYLNWYQQKRGKAPKLLIHGATSLASGVPSRFSGSGSGTDFTLTISSLQPEDFATYYCQQSYSTTSPTFGQGTKVEIK
notes: as for B1

This is an account of results in US20190233528A1 (published 2019).

In this experiment the target is T1, recombinant human CD70 (AviTag, …). As to the kind of experiment: SPR (Biacore 8K, 37 C): CD70 captured via anti-AviTag antibody on C1 chip, scFv-Fc as analyte; 1:1 Langmuir fit. As for the experimental part:
The antibody binding kinetics were determined by surface plasmon resonance (Biacore 8K, GE Healthcare Bio-Sciences, Pittsburgh Pa.) at 37° C. in HBS-T+ (0.01 M HEPES pH 7.4, 0.15 M NaCl, 0.05% v/v Tween20, 1 mg/mL BSA). Recombinant human CD70 diluted in HBS-T+ was captured on a C1 chip immobilized with an anti-AviTag™ antibody. Purified anti-CD70 scFv-Fc fusions were serially diluted into HBS-T+, injected at 30 uL/min for 2-4 min, dissociation monitored for 10 min then the surface regenerated with 75 mM phosphoric acid between injections. Buffer cycles were collected for each anti-CD70 scFv-Fc fusion for double-referencing purposes (double-referencing as described in Myszka, D. G. Improving biosensor analysis. J. Mol. Recognit. 12, 279-284 (1999)). Kinetic association rates (kₒₙ) and dissociation rates (koff) were obtained simultaneously by fitting the double-referenced sensorgrams globally to a 1:1 Langmuir with mass transport model using Biacore 8K Evaluation Software (GE Healthcare Bio-Sciences, Pittsburgh Pa.) then used to calculate an equilibrium dissociation constant (KD) from the kinetic rate constants (KD=koff/kₒₙ). The data was fit to a 1:1 steady state affinity model using Biacore 8K Evaluation Software to determine a steady state equilibrium dissociation constant (SS KD) as needed.
On the technique in general: SPR reads the build-up and loss of mass on a sensor chip optically.
What is called Kd is a measure of binding affinity in units of concentration. The koff is the first-order rate constant of dissociation. One may read the kon as the rate constant with which the complex forms. For the molecule B1, the dissociation constant Kd was 15.4 nM, the off-rate constant (koff) came to 0.00159 s⁻¹, the kon came to 103000 M⁻¹ s⁻¹ and the “t1/2” value was 7.3 min.
On to B2, for which the dissociation constant Kd amounted to 5.7 nM, the koff was determined as 0.00155 s⁻¹, the association rate constant (kon) amounted to 275000 M⁻¹ s⁻¹ and the “t1/2” value turned out to be 7.4 min.
Regarding B3, the Kd was determined as 2.6 nM, the koff is 0.00212 s⁻¹, the kon was determined as 825000 M⁻¹ s⁻¹ and the “t1/2” value was found to be 5.4 min.
On to B4, for which the Kd came out at 1.7 nM, the koff was 0.000755 s⁻¹, the kon was found to be 441000 M⁻¹ s⁻¹ and the “t1/2” value stood at 15.3 min.
Regarding B5, the Kd was determined as 27.3 nM, the koff came out at 0.00194 s⁻¹, the association rate constant (kon) worked out at 71200 M⁻¹ s⁻¹ and the “t1/2” value was determined as 5.9 min.
In the same order, the values of B6 are 10.7 nM, 0.0153 s⁻¹, 1.44e+06 M⁻¹ s⁻¹ and 0.8 min.
Regarding B7, the dissociation constant (Kd) amounted to 330 nM, the koff turned out to be 0.00788 s⁻¹, the on-rate constant (kon) came to 23900 M⁻¹ s⁻¹ and the “t1/2” value amounted to 1.5 min.
Regarding B8, the Kd came out at 5.3 nM, the koff is 0.00438 s⁻¹, the kon came to 823000 M⁻¹ s⁻¹ and the “t1/2” value is 2.6 min.
In the same order, the values of B9 are 1.9 nM, 0.0016 s⁻¹, 825000 M⁻¹ s⁻¹ and 7.2 min.
Consider B10, for which the Kd stood at 205 nM, the off-rate (koff) was determined as 0.02 s⁻¹, the kon amounted to 97700 M⁻¹ s⁻¹ and the “t1/2” value was found to be 0.6 min.
For the molecule B11, the Kd stood at 4.1 nM, the koff was 0.00135 s⁻¹, the association rate constant (kon) amounted to 330000 M⁻¹ s⁻¹ and the “t1/2” value was determined as 8.6 min.
